Test in all cases: PIE-FCCS
Data set [1] concerns the target T1, Plexin A4ΔSema (human, UniProt Q9HCM2 24-1894, deletes residues 39-506).
T1 sequence (looked up): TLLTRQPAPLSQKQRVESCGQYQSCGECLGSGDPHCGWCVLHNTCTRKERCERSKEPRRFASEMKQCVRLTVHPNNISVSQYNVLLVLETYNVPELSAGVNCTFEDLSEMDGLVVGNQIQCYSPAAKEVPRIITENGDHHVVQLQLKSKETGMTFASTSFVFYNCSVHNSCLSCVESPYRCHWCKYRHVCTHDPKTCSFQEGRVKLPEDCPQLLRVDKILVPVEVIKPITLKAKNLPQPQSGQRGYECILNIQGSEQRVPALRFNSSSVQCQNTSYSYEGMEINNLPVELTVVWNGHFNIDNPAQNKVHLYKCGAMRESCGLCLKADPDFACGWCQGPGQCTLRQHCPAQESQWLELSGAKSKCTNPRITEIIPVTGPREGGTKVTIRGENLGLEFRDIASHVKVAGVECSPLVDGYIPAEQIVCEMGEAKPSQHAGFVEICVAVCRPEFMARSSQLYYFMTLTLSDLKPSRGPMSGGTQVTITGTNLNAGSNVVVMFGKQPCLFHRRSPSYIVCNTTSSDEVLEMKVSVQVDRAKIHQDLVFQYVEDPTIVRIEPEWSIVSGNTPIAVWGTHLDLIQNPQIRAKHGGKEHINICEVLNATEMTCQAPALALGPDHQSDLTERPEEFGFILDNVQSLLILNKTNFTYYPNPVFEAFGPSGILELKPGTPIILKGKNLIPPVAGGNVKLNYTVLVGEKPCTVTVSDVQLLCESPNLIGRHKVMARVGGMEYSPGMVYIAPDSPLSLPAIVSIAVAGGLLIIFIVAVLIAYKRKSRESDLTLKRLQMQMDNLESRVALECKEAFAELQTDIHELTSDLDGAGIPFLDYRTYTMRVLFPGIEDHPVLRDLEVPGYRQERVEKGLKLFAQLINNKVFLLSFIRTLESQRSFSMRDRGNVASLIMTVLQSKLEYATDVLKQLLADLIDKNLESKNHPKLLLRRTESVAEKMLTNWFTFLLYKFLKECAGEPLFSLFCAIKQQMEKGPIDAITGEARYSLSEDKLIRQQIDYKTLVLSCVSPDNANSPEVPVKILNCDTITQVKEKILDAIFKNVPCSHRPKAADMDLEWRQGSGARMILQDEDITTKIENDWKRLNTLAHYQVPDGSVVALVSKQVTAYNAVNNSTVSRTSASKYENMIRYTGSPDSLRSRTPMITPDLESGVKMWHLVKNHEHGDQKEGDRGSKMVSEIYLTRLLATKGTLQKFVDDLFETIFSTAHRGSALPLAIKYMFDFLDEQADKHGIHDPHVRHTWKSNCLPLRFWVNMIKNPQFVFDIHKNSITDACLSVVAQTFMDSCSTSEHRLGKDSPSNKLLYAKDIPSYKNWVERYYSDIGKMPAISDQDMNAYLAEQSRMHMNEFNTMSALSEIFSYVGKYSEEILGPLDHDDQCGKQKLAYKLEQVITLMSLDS

Data set [2] deals with the molecule itself.
Data set [3] deals with Plexin A4 (human, UniProt Q9HCM2 24-1894).

B1: Plexin A2 (receptor, human, UniProt O75051 35-1894, looked up)
chain: MPQFSTFHSENRDWTFNHLTVHQGTGAVYVGAINRVYKLTGNLTIQVAHKTGPEEDNKSCYPPLIVQPCSEVLTLTNNVNKLLIIDYSENRLLACGSLYQGVCKLLRLDDLFILVEPSHKKEHYLSSVNKTGTMYGVIVRSEGEDGKLFIGTAVDGKQDYFPTLSSRKLPRDPESSAMLDYELHSDFVSSLIKIPSDTLALVSHFDIFYIYGFASGGFVYFLTVQPETPEGVAINSAGDLFYTSRIVRLCKDDPKFHSYVSLPFGCTRAGVEYRLLQAAYLAKPGDSLAQAFNITSQDDVLFAIFSKGQKQYHHPPDDSALCAFPIRAINLQIKERLQSCYQGEGNLELNWLLGKDVQCTKAPVPIDDNFCGLDINQPLGGSTPVEGLTLYTTSRDRMTSVASYVYNGYSVVFVGTKSGKLKKIRADGPPHGGVQYEMVSVLKDGSPILRDMAFSIDQRYLYVMSERQVTRVPVESCEQYTTCGECLSSGDPHCGWCALHNMCSRRDKCQQAWEPNRFAASISQCVSLAVHPSSISVSEHSRLLSLVVSDAPDLSAGIACAFGNLTEVEGQVSGSQVICISPGPKDVPVIPLDQDWFGLELQLRSKETGKIFVSTEFKFYNCSAHQLCLSCVNSAFRCHWCKYRNLCTHDPTTCSFQEGRINISEDCPQLVPTEEILIPVGEVKPITLKARNLPQPQSGQRGYECVLNIQGAIHRVPALRFNSSSVQCQNSSYQYDGMDISNLAVDFAVVWNGNFIIDNPQDLKVHLYKCAAQRESCGLCLKADRKFECGWCSGERRCTLHQHCTSPSSPWLDWSSHNVKCSNPQITEILTVSGPPEGGTRVTIHGVNLGLDFSEIAHHVQVAGVPCTPLPGEYIIAEQIVCEMGHALVGTTSGPVRLCIGECKPEFMTKSHQQYTFVNPSVLSLNPIRGPESGGTMVTITGHYLGAGSSVAVYLGNQTCEFYGRSMSEIVCVSPPSSNGLGPVPVSVSVDRAHVDSNLQFEYIDDPRVQRIEPEWSIASGHTPLTITGFNLDVIQEPRIRVKFNGKESVNVCKVVNTTTLTCLAPSLTTDYRPGLDTVERPDEFGFVFNNVQSLLIYNDTKFIYYPNPTFELLSPTGVLDQKPGSPIILKGKNLCPPASGGAKLNYTVLIGETPCAVTVSETQLLCEPPNLTGQHKVMVHVGGMVFSPGSVSVISDSLLTLPAIVSIAAGGSLLLIIVIIVLIAYKRKSRENDLTLKRLQMQMDNLESRVALECKEAFAELQTDINELTSDLDRSGIPYLDYRTYAMRVLFPGIEDHPVLRELEVQGNGQQHVEKALKLFAQLINNKVFLLTFIRTLELQRSFSMRDRGNVASLIMTGLQGRLEYATDVLKQLLSDLIDKNLENKNHPKLLLRRTESVAEKMLTNWFAFLLHKFLKECAGEPLFMLYCAIKQQMEKGPIDAITGEARYSLSEDKLIRQQIEYKTLILNCVNPDNENSPEIPVKVLNCDTITQVKEKILDAVYKNVPYSQRPRAVDMDLEWRQGRIARVVLQDEDITTKIEGDWKRLNTLMHYQVSDRSVVALVPKQTSSYNIPASASISRTSISRYDSSFRYTGSPDSLRSRAPMITPDLESGVKVWHLVKNHDHGDQKEGDRGSKMVSEIYLTRLLATKGTLQKFVDDLFETLFSTVHRGSALPLAIKYMFDFLDEQADRHSIHDTDVRHTWKSNCLPLRFWVNVIKNPQFVFDIHKGSITDACLSVVAQTFMDSCSTSEHRLGKDSPSNKLLYAKDIPSYKSWVERYYADIAKLPAISDQDMNAYLAEQSRLHAVEFNMLSALNEIYSYVSKYSEELIGALEQDEQARRQRLAYKVEQLINAMSIES
In general, stoichiometry N refers to the number of molecules, sites or subunits per partner or assembly. B1: the “median fraction correlated (fc)” value in data set [1] was 0.23; in data set [2], 0.09; in data set [3], 0.08. In data set [2], the “stoichiometry N” value amounted to 2.

Source of the values: publication doi:10.1101/2021.02.18.431813 (bioRxiv, 2021).
